In publication PMC5887438 (Nucleic Acids Research, 2018):

Target: C. crescentus σ70 domain 2 (σ70_2, residues 128-487) (Caulobacter crescentus, UniProt P52324 127-486)
Assay: crystal structure

C. crescentus σ70 domain 2 (σ70_2, residues 128-487), sequence (P52324 127-486): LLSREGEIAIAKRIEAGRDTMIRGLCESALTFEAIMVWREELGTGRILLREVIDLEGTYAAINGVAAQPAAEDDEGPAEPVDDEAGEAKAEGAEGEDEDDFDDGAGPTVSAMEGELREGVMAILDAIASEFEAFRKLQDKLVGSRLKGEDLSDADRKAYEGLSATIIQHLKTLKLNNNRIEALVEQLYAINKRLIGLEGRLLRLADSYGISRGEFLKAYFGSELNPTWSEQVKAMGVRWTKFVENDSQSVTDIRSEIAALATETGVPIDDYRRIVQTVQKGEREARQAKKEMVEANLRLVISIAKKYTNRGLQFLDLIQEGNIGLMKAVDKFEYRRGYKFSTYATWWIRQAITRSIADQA

B1: C. crescentus GcrA-SID (residues 88-173) (domain or fragment, Caulobacter crescentus, UniProt A0A0H3C9J4 88-173, looked up)
chain: VPVAAAPAPLPAFRHEEPGSATVLTLGAHMCKWPIGDPSSEGFTFCGRRSSEGPYCVEHARVAYQPQQTKKKSGGAELARSLRRYI
stoichiometry N: 1
